Earlier results, collected in patent publication US20110218118A1, “PEPTIDE MODULATORS OF CELLULAR PHENOTYPE AND BI-NUCLEIC ACID FRAGMENT LIBRARY” (PHYLOGICA LIMITED, priority 2004, published 2011).

Target: T1, human cyclin E (Homo sapiens, UniProt P24864)
T1 construct: expressed in transfected cells; host or cells: Saccharomyces cerevisiae strain AZ-1 (huCDK2::his2), mated with PRT 51
Conditions: yeast over-expressing human cyclin E and co-expressing human Cdk2

T1 sequence (P24864 16-410): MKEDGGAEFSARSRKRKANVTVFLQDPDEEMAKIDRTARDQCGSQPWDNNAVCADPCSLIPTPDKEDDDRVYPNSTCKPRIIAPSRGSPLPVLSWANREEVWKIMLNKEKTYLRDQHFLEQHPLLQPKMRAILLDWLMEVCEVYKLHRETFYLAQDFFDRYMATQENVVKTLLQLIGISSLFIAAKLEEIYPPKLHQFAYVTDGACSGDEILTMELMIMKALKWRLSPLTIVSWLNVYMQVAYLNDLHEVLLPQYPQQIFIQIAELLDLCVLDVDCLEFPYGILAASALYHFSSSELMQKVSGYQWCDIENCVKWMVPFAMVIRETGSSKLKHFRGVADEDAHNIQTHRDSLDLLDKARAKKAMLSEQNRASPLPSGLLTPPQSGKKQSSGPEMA

Question: For “p21^CIP1: positive control protein, cDNA (SEQ ID NO: 60) cloned as in-frame fusion into the pMF4-5 plasmid”, which “rescue of the cyclin E lethal phenotype in yeast” value is on record?
Answer: The value was “rescue the lethal phenotype in yeast”.
